Test results from US20250297026A1 (PETMEDIX, published 2025).

How the values were obtained:
canine CD20 [1] = target: T1, canine CD20 (canine, UniProt Q3C2E2 1-297); experiment: cell-based or functional assay
T1 chain: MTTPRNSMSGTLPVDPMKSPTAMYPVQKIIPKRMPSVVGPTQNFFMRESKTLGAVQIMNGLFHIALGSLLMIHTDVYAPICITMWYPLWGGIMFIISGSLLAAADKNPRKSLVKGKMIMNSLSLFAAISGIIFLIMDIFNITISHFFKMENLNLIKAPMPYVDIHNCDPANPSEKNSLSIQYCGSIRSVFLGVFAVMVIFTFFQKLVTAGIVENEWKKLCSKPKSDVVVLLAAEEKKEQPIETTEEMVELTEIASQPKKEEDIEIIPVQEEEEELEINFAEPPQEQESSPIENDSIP

canine CD20 [2] = target: T2, canine CD20 (UniProt Q3C2E2 1-297); experiment: flow cytometry, cCD20-expressing MDCK II cells; apparent Kd (EC50 of binding)
T2 chain: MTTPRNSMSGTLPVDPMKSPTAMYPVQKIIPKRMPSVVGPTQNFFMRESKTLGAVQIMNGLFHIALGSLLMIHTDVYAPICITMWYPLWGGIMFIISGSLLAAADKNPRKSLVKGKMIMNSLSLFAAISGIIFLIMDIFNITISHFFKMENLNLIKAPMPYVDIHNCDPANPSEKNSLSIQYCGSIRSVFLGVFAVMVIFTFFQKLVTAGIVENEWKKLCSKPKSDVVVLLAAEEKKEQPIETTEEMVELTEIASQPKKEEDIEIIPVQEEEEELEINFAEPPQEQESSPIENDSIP

- ADCC EC50 (canine CD20 [1]): 0.29 nM
- CDC EC50 (canine CD20 [1]): 11.2 nM
- Kd (canine CD20 [2]): 1.1 nM
B1: PMX070 (antibody, V domains shown)
VH: EMQLVESGGDLVKPGGSLRLSCVASGFTFSRYHMSWVRQAPGKGLQWVAYINSGGSPTNYADAVKGRFTISRDNAKNTLYLQMNSLRAEDTAVYYCTTYDQWGQGTLVTVSS
VL: SYVLTQLPSKSVTLKQPAHITCGGDNIGSKSVHWYQQKLGQAPVLIIYYDSSRPTGIPERFSGANSGNTATLTISGALAEDEADYYCQVWDTSANVFGGGTHLTVL
- ADCC Maximum killing (%) (canine CD20 [1]): 51%
- CDC Maximum killing (%) (canine CD20 [1]): 97.1%
